# Data: publication PMC3695782
# Molecular target: HIV-1 reverse transcriptase WT (Human immunodeficiency virus type 1) (UniProt P04585+P04585)
# Assay: EMSA
# Conditions: EFdA-MP at primer 3' end; Footprinting: 120 mM sodium cacodylate pH 7, 20 mM NaCl, 6 mM MgCl2, 1 uM EFdA-TP, 7 min pre-incubation with dTTP, then 1 mM ammonium iron sulfate 5 min …
substance,measurement,value
T/P-EFdA-MP (gel shift),binding signal (fold stronger than K65R),1.3
